{"source": "patent US20030170748A1", "about": "(IAMS, published 2003)", "molecules": {"B1": {"name": "[Gly]5 (peptide)", "peptide": "GGGGG"}, "B2": {"name": "MetGlyMetMet (SEQ ID NO:10) (peptide)", "peptide": "MGMM"}, "B3": {"name": "[Gly]4 (peptide)", "peptide": "GGGG"}, "B4": {"name": "Carnosine (β-AlaHis) (peptide)", "peptide": "[βAla]-His"}, "B5": {"name": "LeuTrp (peptide)", "peptide": "LW"}}, "key": {"canine PepT1 (cPepT1) [1]": {"target": "T1, canine PepT1 (cPepT1) (canine, UniProt Q8WMX5 1-708)", "T1 sequence": "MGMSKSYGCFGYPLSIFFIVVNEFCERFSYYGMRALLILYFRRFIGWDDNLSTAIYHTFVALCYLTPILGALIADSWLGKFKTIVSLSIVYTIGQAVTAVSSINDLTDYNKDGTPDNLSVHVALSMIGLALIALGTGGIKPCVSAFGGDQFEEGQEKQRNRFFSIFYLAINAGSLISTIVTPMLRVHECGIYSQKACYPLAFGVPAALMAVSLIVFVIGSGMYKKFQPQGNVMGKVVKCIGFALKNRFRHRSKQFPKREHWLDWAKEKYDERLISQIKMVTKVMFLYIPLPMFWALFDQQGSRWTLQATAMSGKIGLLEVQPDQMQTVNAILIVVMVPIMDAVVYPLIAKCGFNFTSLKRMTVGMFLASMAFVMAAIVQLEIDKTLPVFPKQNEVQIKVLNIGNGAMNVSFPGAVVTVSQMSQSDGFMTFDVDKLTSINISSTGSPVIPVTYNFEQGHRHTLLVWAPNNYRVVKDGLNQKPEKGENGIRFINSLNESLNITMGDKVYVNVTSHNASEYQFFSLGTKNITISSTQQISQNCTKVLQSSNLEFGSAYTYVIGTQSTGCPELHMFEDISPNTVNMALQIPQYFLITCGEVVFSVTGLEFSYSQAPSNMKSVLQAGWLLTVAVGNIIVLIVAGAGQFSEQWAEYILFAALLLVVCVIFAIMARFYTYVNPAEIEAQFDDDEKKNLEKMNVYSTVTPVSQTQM", "assay": "cell-based or functional assay"}, "canine PepT1 (cPepT1) [2]": {"target": "T1, canine PepT1 (cPepT1)", "assay": "inhibition of H+-dependent 100 µM [3H]GlySar uptake by MDCK cells; Ki by graphical analysis of IC50 experiments; competitor GlySar"}, "canine PepT1 (cPepT1) [3]": {"target": "T1, canine PepT1 (cPepT1)", "assay": "cell-based or functional assay", "remark": "listed apart in the source"}, "canine PepT1 (cPepT1) [4]": {"target": "T1, canine PepT1 (cPepT1)", "assay": "cell-based or functional assay", "remark": "listed apart in the source"}}, "note": "Where two headings read alike, the source gives them in different places. Square brackets hold non-standard residues; d marks the D form. Ends that are not written are not given here. βAla = NCCC(=O)O"}
{"molecule": "MetMet (peptide)", "values": [{"measurement": "% inhibition of H+-dependent GlySar uptake (1 mM substrate, 100 µM GlySar, MDCK cells)", "setting": "canine PepT1 (cPepT1) [1]", "result": 100, "unit": "%"}]}
{"molecule": "MetPhe (peptide)", "values": [{"measurement": "% inhibition of H+-dependent GlySar uptake (1 mM substrate, 100 µM GlySar, MDCK cells)", "setting": "canine PepT1 (cPepT1) [1]", "result": 100, "unit": "%"}]}
{"molecule": "TrpGlyGly (peptide)", "values": [{"measurement": "% inhibition of H+-dependent GlySar uptake (1 mM substrate, 100 µM GlySar, MDCK cells)", "setting": "canine PepT1 (cPepT1) [1]", "result": 33, "unit": "%"}, {"measurement": "inhibition of 100 µM GlySar uptake by 1 mM peptide, MDCK cells", "setting": "canine PepT1 (cPepT1) [1]", "result": 73, "unit": "%"}]}
{"molecule": "TrpLeu (peptide)", "values": [{"measurement": "% inhibition of H+-dependent GlySar uptake (100 µM substrate, 100 µM GlySar, MDCK cells; Leu-containing peptides experiment)", "setting": "canine PepT1 (cPepT1) [1]", "result": 94, "unit": "%"}, {"measurement": "% inhibition of H+-dependent GlySar uptake (100 µM substrate, 100 µM GlySar, MDCK cells; Trp-containing peptides experiment)", "setting": "canine PepT1 (cPepT1) [1]", "result": 92, "unit": "%"}, {"measurement": "% inhibition of H+-dependent GlySar uptake (1 mM substrate, 100 µM GlySar, MDCK cells)", "setting": "canine PepT1 (cPepT1) [1]", "result": 116, "unit": "%"}, {"measurement": "% inhibition of pH 6.0 uptake, 10 mM competitor, collagen", "setting": "canine PepT1 (cPepT1) [1]", "result": 8, "unit": "%"}, {"measurement": "% inhibition of pH 6.0 uptake, 10 mM competitor, poly-L-lysine", "setting": "canine PepT1 (cPepT1) [1]", "result": 8.1, "unit": "%"}, {"measurement": "Glysylsarcosine uptake, pH 6.0, with 10 mM competitor, MDCK cells on collagen (pmol 30 min^-1 mg^-1 protein)", "setting": "canine PepT1 (cPepT1) [1]", "result": 5.21}, {"measurement": "Glysylsarcosine uptake, pH 6.0, with 10 mM competitor, MDCK cells on poly-L-lysine (pmol 30 min^-1 mg^-1 protein)", "setting": "canine PepT1 (cPepT1) [1]", "result": 3.44}, {"measurement": "inhibition of H+-dependent 100 µM GlySar uptake by 1 mM peptide, MDCK cells", "setting": "canine PepT1 (cPepT1) [1]", "result": 117, "unit": "%"}, {"measurement": "inhibition of H+-dependent GlySar uptake by 10 mM peptide, MDCK cells on collagen", "setting": "canine PepT1 (cPepT1) [1]", "result": 92, "unit": "%"}, {"measurement": "inhibition of H+-dependent GlySar uptake by 10 mM peptide, MDCK cells on poly-L-lysine", "setting": "canine PepT1 (cPepT1) [1]", "result": 92, "unit": "%"}, {"measurement": "Ki", "setting": "canine PepT1 (cPepT1) [2]", "result": 200, "unit": "nM"}]}
{"molecule": "LeuMet (peptide)", "values": [{"measurement": "% inhibition of H+-dependent GlySar uptake (100 µM substrate, 100 µM GlySar, MDCK cells; Leu-containing peptides experiment)", "setting": "canine PepT1 (cPepT1) [1]", "result": 80, "unit": "%"}]}
{"molecule": "glycylsarcosine (GlySar) (peptide)", "values": [{"measurement": "Km of H+-dependent GlySar uptake by MDCK cells (FIG. 12 legend)", "setting": "canine PepT1 (cPepT1) [1]", "result": 1000, "unit": "µM"}, {"measurement": "apparent Km of H+-dependent GlySar uptake by MDCK cells grown in LHM", "setting": "canine PepT1 (cPepT1) [1]", "result": 1100, "unit": "µM"}, {"measurement": "apparent Km of total GlySar uptake by confluent MDCK cells, pH 6.0", "setting": "canine PepT1 (cPepT1) [1]", "result": 4, "unit": "mM"}, {"measurement": "self-inhibition of 100 µM GlySar uptake by 1 mM GlySar, MDCK cells", "setting": "canine PepT1 (cPepT1) [1]", "result": 64, "unit": "%"}]}
{"molecule": "TrpTrp (peptide)", "values": [{"measurement": "% inhibition of H+-dependent GlySar uptake (100 µM substrate, 100 µM GlySar, MDCK cells; Trp-containing peptides experiment)", "setting": "canine PepT1 (cPepT1) [1]", "result": 62, "unit": "%"}, {"measurement": "% inhibition of H+-dependent GlySar uptake (1 mM substrate, 100 µM GlySar, MDCK cells)", "setting": "canine PepT1 (cPepT1) [1]", "result": 119, "unit": "%"}, {"measurement": "Ki", "setting": "canine PepT1 (cPepT1) [2]", "result": 750, "unit": "nM"}]}
{"molecule": "B1", "values": [{"measurement": "% inhibition of H+-dependent GlySar uptake (1 mM substrate, 100 µM GlySar, MDCK cells)", "setting": "canine PepT1 (cPepT1) [3]", "result": 9, "unit": "%"}, {"measurement": "inhibition of H+-dependent 100 µM GlySar uptake by 1 mM peptide, MDCK cells", "setting": "canine PepT1 (cPepT1) [4]", "result": 7.3, "unit": "%"}]}
{"molecule": "B2", "values": [{"measurement": "% inhibition of H+-dependent GlySar uptake (1 mM substrate, 100 µM GlySar, MDCK cells)", "setting": "canine PepT1 (cPepT1) [3]", "result": 50, "unit": "%"}]}
{"molecule": "B3", "values": [{"measurement": "% inhibition of H+-dependent GlySar uptake (1 mM substrate, 100 µM GlySar, MDCK cells)", "setting": "canine PepT1 (cPepT1) [3]", "result": 19, "unit": "%"}, {"measurement": "inhibition of H+-dependent 100 µM GlySar uptake by 1 mM peptide, MDCK cells", "setting": "canine PepT1 (cPepT1) [4]", "result": 23, "unit": "%"}]}
{"molecule": "B4", "values": [{"measurement": "% inhibition of H+-dependent GlySar uptake (1 mM substrate, 100 µM GlySar, MDCK cells)", "setting": "canine PepT1 (cPepT1) [3]", "result": 50, "unit": "%"}]}
{"molecule": "B5", "values": [{"measurement": "% inhibition of H+-dependent GlySar uptake (1 mM substrate, 100 µM GlySar, MDCK cells)", "setting": "canine PepT1 (cPepT1) [3]", "result": 113, "unit": "%"}, {"measurement": "inhibition of H+-dependent 100 µM GlySar uptake by 1 mM peptide, MDCK cells", "setting": "canine PepT1 (cPepT1) [4]", "result": 114, "unit": "%"}]}
